Kd, ELISA and s/n Ratio data for two molecules are collected here from article PMC10977697 (PLOS ONE, 2024).

Usually Kd stands for the constant that tells how readily two partners part at equilibrium. Lower therefore signals a tighter complex.

One assay concerns the target T1, PCSK9 (human, UniProt Q8NBP7 31-692, biotin on lysines (Sulfo-NHS-LC-biotin)).
T1 construct: also called PCSK9FL; hPCSK9 FL
Kind of assay: SPR. To be noted: both partners purified.

Assay [1] has as its target T2, PCSK9ΔCRD (PCSK9 lacking the C-terminal Cys-rich domain CRD) (human, UniProt Q8NBP7 31-452, biotin on lysines (Sulfo-NHS-LC-biotin)).
T2 construct: also called PCSK9DCRD; PCSK9dCRDTEV
Kind of assay: ELISA. To be noted: one partner purified. Background: An ELISA detects its analyte on a solid surface through an enzyme-linked reagent.

T2 sequence (Q8NBP7 31-452, stated change not applied): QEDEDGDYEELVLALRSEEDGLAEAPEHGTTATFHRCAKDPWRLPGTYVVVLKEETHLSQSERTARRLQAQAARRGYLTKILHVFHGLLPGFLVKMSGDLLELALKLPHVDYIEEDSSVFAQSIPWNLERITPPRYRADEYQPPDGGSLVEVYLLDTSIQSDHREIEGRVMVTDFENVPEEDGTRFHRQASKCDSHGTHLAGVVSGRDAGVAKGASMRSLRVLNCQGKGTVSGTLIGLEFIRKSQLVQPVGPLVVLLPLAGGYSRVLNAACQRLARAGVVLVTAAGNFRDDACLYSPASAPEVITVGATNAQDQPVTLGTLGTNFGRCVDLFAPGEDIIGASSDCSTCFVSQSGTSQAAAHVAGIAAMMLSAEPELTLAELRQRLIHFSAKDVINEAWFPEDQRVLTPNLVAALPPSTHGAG
T1 sequence (Q8NBP7 31-692): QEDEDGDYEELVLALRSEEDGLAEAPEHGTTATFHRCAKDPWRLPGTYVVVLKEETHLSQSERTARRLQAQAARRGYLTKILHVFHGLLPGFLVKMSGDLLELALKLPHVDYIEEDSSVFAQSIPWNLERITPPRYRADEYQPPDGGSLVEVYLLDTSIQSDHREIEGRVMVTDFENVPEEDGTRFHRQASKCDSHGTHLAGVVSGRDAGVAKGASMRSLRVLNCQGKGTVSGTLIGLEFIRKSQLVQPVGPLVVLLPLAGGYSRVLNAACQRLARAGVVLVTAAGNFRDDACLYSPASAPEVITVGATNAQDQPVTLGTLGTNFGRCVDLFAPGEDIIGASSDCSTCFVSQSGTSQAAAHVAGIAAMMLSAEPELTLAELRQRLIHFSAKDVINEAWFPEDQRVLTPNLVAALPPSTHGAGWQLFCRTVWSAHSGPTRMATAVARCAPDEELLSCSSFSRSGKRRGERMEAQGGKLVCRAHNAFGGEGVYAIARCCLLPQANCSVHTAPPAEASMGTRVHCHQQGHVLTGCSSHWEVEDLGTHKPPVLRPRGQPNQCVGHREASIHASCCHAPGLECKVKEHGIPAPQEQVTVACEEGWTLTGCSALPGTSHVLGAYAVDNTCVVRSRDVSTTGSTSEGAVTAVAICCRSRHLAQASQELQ

B1: PCSK9_CnTx1 (designed binder)
chain: ECKGKGAKCSYYMGIDKGYVNYCCTGSCRSGKC
notes: Conotoxin-MVIIA scaffold
The molecule B1 yielded a Kd in the assay with PCSK9 of 4.5 µM.

B2: PCSK9_CnTx1 displayed on M13 phage (designed binder)
chain: B1 chain
notes: Conotoxin-MVIIA scaffold
Take B2: in assay [1], the ELISA worked out at 2 and the s/n Ratio amounted to 29.7.
